Measured values: US20140072613A1, “Compositions and Methods for Treating Cutaneous Scarring” (priority 2012, published 2014)

How the values were obtained:
Experiment in all cases: cell-based or functional assay
CDK5/p35(h) (human) = CDK5/p35(h) (human) (UniProt Q00535)
DAPK2(h) (human) = DAPK2(h) (human) (UniProt Q9UIK4)
DDR2(h) (human) = target: T1, DDR2(h) (human) (UniProt Q16832)
T1 sequence (looked up): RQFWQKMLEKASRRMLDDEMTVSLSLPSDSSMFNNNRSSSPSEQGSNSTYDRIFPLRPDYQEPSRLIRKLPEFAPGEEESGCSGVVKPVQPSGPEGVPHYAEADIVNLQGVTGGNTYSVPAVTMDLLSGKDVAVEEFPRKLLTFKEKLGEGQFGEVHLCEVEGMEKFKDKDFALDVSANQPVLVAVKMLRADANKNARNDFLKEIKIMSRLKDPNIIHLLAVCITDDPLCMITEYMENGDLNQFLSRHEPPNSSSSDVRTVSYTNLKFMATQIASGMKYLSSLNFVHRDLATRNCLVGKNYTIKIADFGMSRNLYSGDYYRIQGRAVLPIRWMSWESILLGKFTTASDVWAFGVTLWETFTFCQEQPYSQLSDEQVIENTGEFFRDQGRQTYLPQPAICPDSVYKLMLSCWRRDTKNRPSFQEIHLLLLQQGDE

EGFR(L861Q)(h) (human) = EGFR(L861Q)(h) (human) (UniProt P00533)
Flt4(h) (human) = Flt4(h) (human) (UniProt P35916)
Flt4(h) (human), sequence (P35916 800-1363 limits assumed): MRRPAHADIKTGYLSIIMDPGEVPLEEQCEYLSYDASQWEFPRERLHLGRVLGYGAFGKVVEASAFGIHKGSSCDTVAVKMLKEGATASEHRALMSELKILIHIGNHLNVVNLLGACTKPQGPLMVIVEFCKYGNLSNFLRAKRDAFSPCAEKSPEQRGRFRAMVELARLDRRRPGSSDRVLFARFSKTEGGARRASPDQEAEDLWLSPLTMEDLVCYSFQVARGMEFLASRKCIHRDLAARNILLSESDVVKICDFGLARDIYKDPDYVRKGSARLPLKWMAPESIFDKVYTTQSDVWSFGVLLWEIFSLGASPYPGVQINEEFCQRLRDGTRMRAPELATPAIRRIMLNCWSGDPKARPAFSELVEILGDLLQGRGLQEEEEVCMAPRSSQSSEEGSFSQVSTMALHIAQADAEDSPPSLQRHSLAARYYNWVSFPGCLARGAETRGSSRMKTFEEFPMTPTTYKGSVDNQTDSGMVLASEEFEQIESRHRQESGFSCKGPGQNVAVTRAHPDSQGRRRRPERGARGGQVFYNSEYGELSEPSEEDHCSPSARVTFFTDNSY

Fyn(h) (human) = Fyn(h) (human) (UniProt P06241)
Fyn(h) (human), sequence (P06241 whole entry): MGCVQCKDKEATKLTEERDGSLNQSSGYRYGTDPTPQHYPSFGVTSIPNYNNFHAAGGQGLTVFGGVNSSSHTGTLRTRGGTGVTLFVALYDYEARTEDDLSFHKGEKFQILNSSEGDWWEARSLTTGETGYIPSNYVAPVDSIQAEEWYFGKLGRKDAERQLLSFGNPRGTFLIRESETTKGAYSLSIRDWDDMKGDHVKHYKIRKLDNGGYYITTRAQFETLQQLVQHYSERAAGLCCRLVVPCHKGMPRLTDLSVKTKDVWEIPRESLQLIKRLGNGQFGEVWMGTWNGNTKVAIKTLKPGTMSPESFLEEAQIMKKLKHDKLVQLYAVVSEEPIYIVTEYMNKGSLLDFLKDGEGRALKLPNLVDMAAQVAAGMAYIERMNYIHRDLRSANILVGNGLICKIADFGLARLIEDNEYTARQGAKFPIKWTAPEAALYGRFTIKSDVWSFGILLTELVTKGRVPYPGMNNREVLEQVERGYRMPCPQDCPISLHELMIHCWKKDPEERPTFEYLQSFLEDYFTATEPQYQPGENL

GRK6(h) (human) = GRK6(h) (human) (UniProt P43250)
GRK6(h) (human), sequence (P43250 whole entry): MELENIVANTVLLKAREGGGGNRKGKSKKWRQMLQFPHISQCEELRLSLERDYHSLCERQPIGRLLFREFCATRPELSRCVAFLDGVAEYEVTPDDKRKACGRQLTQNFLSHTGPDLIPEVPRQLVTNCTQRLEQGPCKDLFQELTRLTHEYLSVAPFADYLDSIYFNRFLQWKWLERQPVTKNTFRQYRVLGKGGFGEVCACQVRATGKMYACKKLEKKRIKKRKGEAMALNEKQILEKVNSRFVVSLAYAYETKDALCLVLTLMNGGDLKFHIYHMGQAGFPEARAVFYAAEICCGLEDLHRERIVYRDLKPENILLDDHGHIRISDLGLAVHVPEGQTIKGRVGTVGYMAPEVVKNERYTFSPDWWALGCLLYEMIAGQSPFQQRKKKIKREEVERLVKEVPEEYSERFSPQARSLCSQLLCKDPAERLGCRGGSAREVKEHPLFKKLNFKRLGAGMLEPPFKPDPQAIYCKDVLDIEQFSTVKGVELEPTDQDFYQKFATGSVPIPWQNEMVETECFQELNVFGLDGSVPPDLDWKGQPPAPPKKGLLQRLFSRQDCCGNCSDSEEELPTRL

Haspin(h) (human) = target: T2, Haspin(h) (human) (UniProt Q8TF76)
T2 sequence (looked up): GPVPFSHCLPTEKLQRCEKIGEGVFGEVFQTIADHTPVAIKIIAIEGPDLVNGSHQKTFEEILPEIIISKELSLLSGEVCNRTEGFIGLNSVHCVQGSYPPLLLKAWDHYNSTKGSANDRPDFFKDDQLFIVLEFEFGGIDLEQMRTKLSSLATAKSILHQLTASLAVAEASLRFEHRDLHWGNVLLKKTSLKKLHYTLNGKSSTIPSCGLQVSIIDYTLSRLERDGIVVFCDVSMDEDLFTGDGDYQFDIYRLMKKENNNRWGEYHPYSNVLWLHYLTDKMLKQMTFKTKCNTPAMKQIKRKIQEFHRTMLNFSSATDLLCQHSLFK

MINK(h) (human) = MINK(h) (human) (UniProt Q8N4C8)
MINK(h) (human), sequence (Q8N4C8 1-320 limits assumed): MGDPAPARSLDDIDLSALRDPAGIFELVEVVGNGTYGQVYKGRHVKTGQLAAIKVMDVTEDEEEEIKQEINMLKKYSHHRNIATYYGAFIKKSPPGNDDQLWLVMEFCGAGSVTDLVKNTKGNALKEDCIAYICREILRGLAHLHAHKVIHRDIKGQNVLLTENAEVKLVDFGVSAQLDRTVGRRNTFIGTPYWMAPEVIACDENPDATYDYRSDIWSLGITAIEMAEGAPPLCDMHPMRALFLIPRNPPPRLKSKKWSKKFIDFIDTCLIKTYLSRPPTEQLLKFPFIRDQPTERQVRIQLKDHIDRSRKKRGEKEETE

Mer(h) (human) = target: T3, Mer(h) (human) (UniProt Q12866)
T3 sequence (looked up): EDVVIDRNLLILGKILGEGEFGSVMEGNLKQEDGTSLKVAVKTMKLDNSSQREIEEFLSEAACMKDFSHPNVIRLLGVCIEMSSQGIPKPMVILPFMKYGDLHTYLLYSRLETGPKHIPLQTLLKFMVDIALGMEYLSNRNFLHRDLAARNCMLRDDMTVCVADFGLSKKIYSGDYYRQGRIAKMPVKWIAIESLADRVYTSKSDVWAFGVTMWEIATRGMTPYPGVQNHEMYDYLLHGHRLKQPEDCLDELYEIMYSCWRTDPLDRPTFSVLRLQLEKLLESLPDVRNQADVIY

Met(M1268T)(h) (human) = Met(M1268T)(h) (human) (UniProt P08581)
NEK11(h) (human) = target: T4, NEK11(h) (human) (UniProt Q8NG66)
T4 sequence (looked up): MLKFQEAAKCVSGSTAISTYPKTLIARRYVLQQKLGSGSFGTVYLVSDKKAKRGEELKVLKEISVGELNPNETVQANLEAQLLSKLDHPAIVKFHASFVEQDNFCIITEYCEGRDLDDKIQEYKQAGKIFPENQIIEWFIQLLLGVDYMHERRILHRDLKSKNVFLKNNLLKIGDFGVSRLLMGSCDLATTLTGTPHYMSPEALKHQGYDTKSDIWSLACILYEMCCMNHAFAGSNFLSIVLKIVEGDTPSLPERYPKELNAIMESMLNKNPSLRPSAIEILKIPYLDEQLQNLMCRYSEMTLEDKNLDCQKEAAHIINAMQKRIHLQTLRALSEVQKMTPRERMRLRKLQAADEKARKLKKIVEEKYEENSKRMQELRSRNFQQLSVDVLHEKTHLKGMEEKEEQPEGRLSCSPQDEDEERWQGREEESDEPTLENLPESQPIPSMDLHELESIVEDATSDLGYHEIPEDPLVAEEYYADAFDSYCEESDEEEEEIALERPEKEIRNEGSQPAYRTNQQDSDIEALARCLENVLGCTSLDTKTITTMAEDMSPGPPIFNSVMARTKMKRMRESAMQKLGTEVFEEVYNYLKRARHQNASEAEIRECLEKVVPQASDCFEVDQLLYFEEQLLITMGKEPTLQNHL

PASK(h) (human) = PASK(h) (human) (UniProt Q96RG2)
PASK(h) (human), sequence (Q96RG2 879-1323 limits assumed): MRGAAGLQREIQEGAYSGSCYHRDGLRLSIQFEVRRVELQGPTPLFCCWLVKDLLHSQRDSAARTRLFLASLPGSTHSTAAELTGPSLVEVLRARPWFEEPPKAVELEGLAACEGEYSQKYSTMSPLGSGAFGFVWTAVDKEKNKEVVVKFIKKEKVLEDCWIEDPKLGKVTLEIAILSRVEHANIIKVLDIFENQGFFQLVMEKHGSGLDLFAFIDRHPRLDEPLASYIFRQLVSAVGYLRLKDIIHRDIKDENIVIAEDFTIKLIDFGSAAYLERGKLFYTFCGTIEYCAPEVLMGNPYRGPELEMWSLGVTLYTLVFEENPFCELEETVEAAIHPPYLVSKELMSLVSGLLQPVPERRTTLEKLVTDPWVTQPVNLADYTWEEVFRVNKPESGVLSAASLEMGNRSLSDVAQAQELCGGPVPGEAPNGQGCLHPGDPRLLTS

PDGFRα(V561D)(h) (human) = PDGFRα(V561D)(h) (human) (UniProt P16234)
PDGFRα(V561D)(h) (human), sequence (P16234 550-1089 V561D limits assumed): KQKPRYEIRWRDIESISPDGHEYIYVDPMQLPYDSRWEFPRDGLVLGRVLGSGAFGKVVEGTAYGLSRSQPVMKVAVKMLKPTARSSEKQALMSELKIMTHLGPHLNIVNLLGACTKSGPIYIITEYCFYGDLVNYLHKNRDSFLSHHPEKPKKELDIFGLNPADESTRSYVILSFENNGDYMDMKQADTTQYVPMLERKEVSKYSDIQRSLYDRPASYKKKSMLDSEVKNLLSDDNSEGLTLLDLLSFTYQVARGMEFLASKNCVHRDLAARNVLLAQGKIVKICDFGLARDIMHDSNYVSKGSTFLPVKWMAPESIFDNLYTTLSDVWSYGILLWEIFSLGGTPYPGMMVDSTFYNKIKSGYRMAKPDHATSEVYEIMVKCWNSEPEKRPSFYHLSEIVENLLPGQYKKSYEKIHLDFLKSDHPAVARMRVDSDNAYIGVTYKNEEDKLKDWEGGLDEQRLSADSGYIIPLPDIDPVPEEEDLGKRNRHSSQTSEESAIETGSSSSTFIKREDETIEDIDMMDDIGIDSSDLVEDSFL

PDGFRβ(h) (human) = PDGFRβ(h) (human) (UniProt P09619)
PKCβII(h) (human) = PKCβII(h) (human) (UniProt P05771)
PKCβII(h) (human), sequence (P05771 other isoform, or with tags, fused parts or gaps): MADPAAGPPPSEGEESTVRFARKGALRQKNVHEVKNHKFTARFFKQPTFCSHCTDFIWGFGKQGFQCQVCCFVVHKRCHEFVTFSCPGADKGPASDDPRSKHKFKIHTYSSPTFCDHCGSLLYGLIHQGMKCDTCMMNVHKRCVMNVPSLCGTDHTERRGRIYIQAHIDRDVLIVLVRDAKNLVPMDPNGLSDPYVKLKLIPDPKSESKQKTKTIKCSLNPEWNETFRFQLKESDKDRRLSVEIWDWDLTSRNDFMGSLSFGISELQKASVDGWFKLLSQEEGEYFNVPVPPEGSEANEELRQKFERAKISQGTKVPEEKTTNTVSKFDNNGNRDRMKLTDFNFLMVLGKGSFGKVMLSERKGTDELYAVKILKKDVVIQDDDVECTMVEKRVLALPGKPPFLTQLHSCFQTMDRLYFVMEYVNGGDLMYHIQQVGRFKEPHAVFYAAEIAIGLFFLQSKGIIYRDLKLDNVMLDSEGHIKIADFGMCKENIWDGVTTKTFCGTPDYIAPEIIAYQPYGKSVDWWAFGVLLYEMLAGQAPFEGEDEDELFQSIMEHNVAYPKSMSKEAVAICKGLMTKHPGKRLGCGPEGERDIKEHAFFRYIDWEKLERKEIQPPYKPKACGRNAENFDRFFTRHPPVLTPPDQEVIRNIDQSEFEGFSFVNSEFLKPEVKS

PKGη(h) (human) = target: PKGη(h) (human)
Rsk1(h) (human) = Rsk1(h) (human) (UniProt Q15418)
Rsk3(h) (human) = Rsk3(h) (human) (UniProt Q15349)
Rsk3(h) (human), sequence (Q15349 whole entry): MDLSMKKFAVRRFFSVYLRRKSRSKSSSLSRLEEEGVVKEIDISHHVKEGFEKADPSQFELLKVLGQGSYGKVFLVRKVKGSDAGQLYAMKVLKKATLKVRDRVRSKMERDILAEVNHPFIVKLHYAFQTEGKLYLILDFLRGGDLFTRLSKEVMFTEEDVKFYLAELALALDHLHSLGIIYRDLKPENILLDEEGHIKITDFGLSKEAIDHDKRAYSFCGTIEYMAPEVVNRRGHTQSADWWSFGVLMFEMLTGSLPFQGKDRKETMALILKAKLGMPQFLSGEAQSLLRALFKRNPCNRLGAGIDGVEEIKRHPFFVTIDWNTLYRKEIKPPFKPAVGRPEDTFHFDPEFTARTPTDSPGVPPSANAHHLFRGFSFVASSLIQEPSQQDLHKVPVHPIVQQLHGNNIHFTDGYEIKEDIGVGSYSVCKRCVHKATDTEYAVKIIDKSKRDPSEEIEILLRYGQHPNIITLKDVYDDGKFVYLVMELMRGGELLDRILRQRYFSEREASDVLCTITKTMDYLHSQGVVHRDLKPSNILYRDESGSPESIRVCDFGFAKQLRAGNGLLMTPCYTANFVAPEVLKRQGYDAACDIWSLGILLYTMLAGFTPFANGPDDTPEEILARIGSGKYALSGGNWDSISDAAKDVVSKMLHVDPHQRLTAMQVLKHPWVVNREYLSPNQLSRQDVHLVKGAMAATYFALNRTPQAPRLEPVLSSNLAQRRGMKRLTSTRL

Rsk4(h) (human) = Rsk4(h) (human) (UniProt Q9UK32)
SAPK4(h) (human) = target: T5, SAPK4(h) (human) (UniProt O15264)
T5 sequence (looked up): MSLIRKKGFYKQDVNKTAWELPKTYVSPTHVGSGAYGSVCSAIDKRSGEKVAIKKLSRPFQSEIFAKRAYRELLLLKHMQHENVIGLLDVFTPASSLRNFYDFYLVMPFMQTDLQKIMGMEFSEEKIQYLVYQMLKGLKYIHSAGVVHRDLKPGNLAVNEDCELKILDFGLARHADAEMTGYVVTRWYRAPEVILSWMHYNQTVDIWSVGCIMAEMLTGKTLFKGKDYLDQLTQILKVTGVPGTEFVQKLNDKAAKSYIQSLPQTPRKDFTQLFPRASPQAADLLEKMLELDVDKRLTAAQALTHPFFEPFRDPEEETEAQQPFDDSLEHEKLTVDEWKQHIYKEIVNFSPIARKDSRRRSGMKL

Src(1-530)(h) (human) = Src(1-530)(h) (human) (UniProt P12931)

DAPK2(h) (human), sequence (Q9UIK4 whole entry): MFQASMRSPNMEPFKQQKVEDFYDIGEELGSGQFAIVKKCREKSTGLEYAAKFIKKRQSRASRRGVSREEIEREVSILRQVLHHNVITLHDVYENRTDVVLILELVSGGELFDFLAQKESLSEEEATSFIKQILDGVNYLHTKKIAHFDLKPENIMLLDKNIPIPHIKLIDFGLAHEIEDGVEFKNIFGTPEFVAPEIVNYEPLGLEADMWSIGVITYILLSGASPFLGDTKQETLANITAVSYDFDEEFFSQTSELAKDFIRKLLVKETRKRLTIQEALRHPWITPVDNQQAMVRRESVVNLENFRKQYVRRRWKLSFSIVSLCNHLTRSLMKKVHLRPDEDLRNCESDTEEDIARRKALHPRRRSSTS

% activity, 100 µM (CDK5/p35(h) (human)): 59% | % activity, 100 µM (DAPK2(h) (human)): 3% | % activity, 100 µM (DDR2(h) (human)): 79% | % activity, 100 µM (EGFR(L861Q)(h) (human)): 15% | % activity, 100 µM (Flt4(h) (human)): 73% | % activity, 100 µM (Fyn(h) (human)): 83% | % activity, 100 µM (GRK6(h) (human)): 174% | % activity, 100 µM (Haspin(h) (human)): 25% | % activity, 100 µM (MINK(h) (human)): 5% | % activity, 100 µM (Mer(h) (human)): 17% | % activity, 100 µM (Met(M1268T)(h) (human)): 239% | % activity, 100 µM (NEK11(h) (human)): 2% | % activity, 100 µM (PASK(h) (human)): 9% | % activity, 100 µM (PDGFRα(V561D)(h) (human)): 146% | % activity, 100 µM (PDGFRβ(h) (human)): 40% | % activity, 100 µM (PKCβII(h) (human)): 3% | % activity, 100 µM (PKGη(h) (human)): 45% | % activity, 100 µM (Rsk1(h) (human)): 34% | % activity, 100 µM (Rsk3(h) (human)): 23% | % activity, 100 µM (Rsk4(h) (human)): 29% | % activity, 100 µM (SAPK4(h) (human)): 48% | % activity, 100 µM (Src(1-530)(h) (human)): 21%
Substance: MMI-0500 (peptide)
